Measured values published in patent publication WO2007059715A2 (dated 2007).

Target: chimeric protein PMEC1-His6 (dengue 2 virus, strain 1409, genotype …)
Experiment: dot blot, 10 μg protein spotted, antibody 10 μg/ml

B1: monoclonal antibody 4G2 (antibody, V domains shown)
VH: EVQLQQSGPELVKPGTSVKISCKTSGYTFTEYTIHWVKQSHGKSLAWIGGIDPNSGGTNYSPNFKGKATLTVDKSSSTAYMDLRSLSSEDSAVYFCARIYHYDGYFDVWGAGTAVTVSS
VL: NIVMTQSPKSMSMSVGERVTLTCKASENVVTYVSWYQQKPEQSPKLLIYGASNRYTGVPDRFTGSGSATDFTLTISSVQAEDLADYHCGQGYSYPYTFGGGTKLEIK
notes: also called AcM 4G2; Mab 4G2
  binding result: binds
